Test results: patent publication US12709637B2, “Regulated synthetic gene activation systems” (TRUSTEES OF BOSTON UNIVERSITY, priority 2023, dated 2026)

B1: 3Z: transcriptional activator, SEQ ID NO: 303; tested with TIMs on N terminus (protein)
chain: MAEEFVTLKDVGMDFTLGDWEQLGLEQGDTFWDTALDNCQDLFLLDPPRPNLTSHPDGSEDLEPLAGGSPEATSMAEEFVTLKDVGMDFTLGDWEQLGLEQGDTFWDTALDNCQDLFLLDPPRPNLTSHPDGSEDLEPLAGGSPEATSMAEEFVTLKDVGMDFTLGDWEQLGLEQGDTFWDTALDNCQDLFLLDPPRPNLTSHPDGSEDLEPLAGGSPEATS
B2: NFZ: transcriptional activator, SEQ ID NO: 57, domains from NCOA3, FOXO3 and ZNF473; tested with TIMs on N terminus (protein, listed as Homo sapiens)
chain: EGQSDERALLDQLHTLLSNTDATGLEEIDRALGIPELVNQGQALEPKQGGGGSGHEKFPSDLDLDMFNGSLECDMESIIRSELMDADGLDFNFDSGGGGSGFVTLKDVGMDFTLGDWEQLGLEQGDTFWDTALDNCQDLFLLDPP

What was measured:
[1] = system: mCherry reporter in Primary T cells; experiment: 4OHT inducible systems driving mCherry reporter in Primary T cells; assay type: cell-based
Description: Primary T cells were co-transduced with synZiFTR 2.0 and a minimally expressed mCherry reporter.

[2] = system: mCherry reporter in Primary T cells; experiment: GZV inducible systems driving mCherry reporter in Primary T cells; assay type: cell-based
Method: Primary T cells were co-transduced with synZiFTR 2.0 and a minimally expressed mCherry reporter. Upon addition of GZV, the synZiFTR construct activated mCherry expression, which was measured on a flow cytometer (see e.g., FIG. 10).

| Molecule | activation potency of the transcriptional activator on fusing TIMs domains on the N terminus [1] | activation potency of the transcriptional activator on fusing TIMs domains on the N terminus [2] |
| --- | --- | --- |
| B1 | enhanced activation potency | – |
| B2 | enhanced activation potency | enhanced activation potency |
